These are literature values, as cited in PMC7915401.

Data set [1] deals with CD200R1 (Homo sapiens) (UniProt Q8TD46).
Data set [2] has the same target. This is another data set of the same source.

Like-named read-outs stand apart in the source and are kept apart here.

Chain of UniProt Q8TD46 (Q8TD46 25-265): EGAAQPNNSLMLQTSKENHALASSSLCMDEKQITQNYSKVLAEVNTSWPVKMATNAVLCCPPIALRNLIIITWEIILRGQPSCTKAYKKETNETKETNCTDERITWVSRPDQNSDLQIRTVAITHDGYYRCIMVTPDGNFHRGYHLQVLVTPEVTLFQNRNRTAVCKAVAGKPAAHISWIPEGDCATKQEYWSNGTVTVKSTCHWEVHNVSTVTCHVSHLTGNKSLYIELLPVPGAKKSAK

As usually defined, the Kd is the constant that tells how readily two partners part at equilibrium. Consider CD200 (from UniProt P41217), for which the Kd in data set [1] is 500 nM.
K14 (vOX2) (from UniProt P0C788): in data set [2], the equilibrium dissociation constant (Kd) is 500 nM.
